Reference: patent US9926369B2, “Methods for treating hepatocellular cancer by administering an anti-Ang-2 antibody” (Regeneron Pharmaceuticals, Inc., priority 2009, dated 2018)

What was measured:
[1] = target: biotin-hBA2 binding to hTie-2 (Homo sapiens, UniProt O15123); test: ELISA blocking of biotinylated hBA2 binding to hTie-2-His; type: biochemical; conditions: antibodies cloned onto human IgG1; NB: no blocking observed at 5 nM concentration; read-out: Biotin - hBA2 IC50
Description: For this experiment, human Tie-2 conjugated to a histidine tag (hTie-2-His; SEQ ID NO:526) was used in a similar fashion to the hTie-2-mFc described above. Antibody concentrations from 5 nM were serially diluted three-fold. […] An average IC50 value for each antibody was calculated based on two separate experiments.

hAng-2FD-mFc K-432-N = target: T1, hAng-2FD-mFc K-432-N (Homo sapiens, UniProt O15123, K432N); test: Ang-2FD-mFc point mutant binding experiment (SPR), K-432-N; conditions: K-432-N mutant captured; antibody/peptibody at 100 nM; 25° C.
T1 construct: made in house
Excerpt: (§1) To further characterize binding between hAng2 and anti-hAng2 mAbs of the invention, seven variant hAng2-FD-mFc proteins were generated, each containing a single point mutation. Amino acids selected for mutation were based on the difference in sequence between hAng-2 and hAng-1 in the region that interacts with hTie-2 (FIG. 1). In particular, amino acids within the fibrinogen-like domain (FD) of Ang-2 which are believed to interact with Tie-2 based on crystal structure analysis, but which differ from the corresponding amino acid in Ang-1, were individually mutated to the corresponding hAng-1 residue. The results of this example indicate the amino acid residues of hAng-2 with which the Ang-2 preferential binding antibodies interact.
(§2) In this experiment, each of the seven hAng-2FD-mFc mutant proteins were captured (˜147-283 RU) on an anti-mouse-Fc surface created through direct chemical coupling to a BIACORE™ chip. Then each Ang-2 antibody (or peptibody, as the case may be) at 100 nM was injected over the captured mFc-tagged hAng-2FD protein surface at a flowrate of 50 μl/min for 180 sec, and the dissociation of variant hAng2-FD-mFc and antibody was monitored in real time for 20 min at 25° C.

[2] = target: Dimeric Human Ang-2FD-mFc (Homo sapiens, UniProt O15123); test: Cross-species SPR binding at 25° C. or 37° C., human Ang-2FD-mFc
Description: Additional binding experiments were conducted using selected anti-Ang-2 antibodies at two different temperatures to further assess cross-species affinity. Each selected antibody or control construct was captured at a flow rate of 40 μL/min for 1 minute on a goat anti-human kappa polyclonal antibody surface created through direct chemical coupling to a BIACORE™ chip to form a captured antibody surface. Human, monkey and mouse Ang-2FD-Fc at a concentration of 25 nM or 0.78 nM was injected over the captured antibody surface at a flowrate of 60 μL/min for 3 minutes, and antigen-antibody dissociation was monitored in real time for 20 minutes at either 25° C. or 37° C.

[3] = tested on: PC3 (Human Prostate Cancer Cell Line) tumors; test: PC3 mouse tumor model; type: in vivo, NCr nude mice
Description: Briefly, 5×10^6 PC3 cells in 100 μl of growth factor-reduced Matrigel (BD Biosciences) were injected subcutaneously into the flanks of 6-8 week old male NCr nude mice (Taconic, Hudson, N.Y.). After tumor volumes reached an average of about 200 mm^3, mice were randomized into groups for treatment. […] Tumor volumes were measured twice per week over the course of the experiment and tumor weights were measured upon excision of tumors at the conclusion of the experiment. Averages (mean+/−standard deviation) of tumor weight and growth were calculated for each treatment group. Percent decrease of tumor weight and growth were calculated from comparison to Fc protein measurements.

WT Ang-2FD-mFc construct = WT Ang-2FD-mFc construct (Homo sapiens, UniProt O15123); test: Ang-2FD-mFc point mutant binding experiment (SPR), wild-type; conditions: WT hAng-2FD-mFc captured; antibody/peptibody at 100 nM; 25° C.
Excerpt: as §1, §2

hAng-2FD-mFc I-434-M = target: T2, hAng-2FD-mFc I-434-M (Homo sapiens, UniProt O15123, I434M); test: Ang-2FD-mFc point mutant binding experiment (SPR), I-434-M; conditions: I-434-M mutant captured; antibody/peptibody at 100 nM; 25° C.
T2 construct: made in house
Excerpt: as §1, §2

hAng-1-WT = target: T3, hAng-1-WT (Homo sapiens, UniProt Q15389); test: SPR binding to full-length wild-type human Ang-1 (preferential binding)
T3 construct: Full-length wild-type human Ang-1 or Ang-2 at a concentration of 25 nM or 0.78 nM
T3 sequence (Q15389 16-498): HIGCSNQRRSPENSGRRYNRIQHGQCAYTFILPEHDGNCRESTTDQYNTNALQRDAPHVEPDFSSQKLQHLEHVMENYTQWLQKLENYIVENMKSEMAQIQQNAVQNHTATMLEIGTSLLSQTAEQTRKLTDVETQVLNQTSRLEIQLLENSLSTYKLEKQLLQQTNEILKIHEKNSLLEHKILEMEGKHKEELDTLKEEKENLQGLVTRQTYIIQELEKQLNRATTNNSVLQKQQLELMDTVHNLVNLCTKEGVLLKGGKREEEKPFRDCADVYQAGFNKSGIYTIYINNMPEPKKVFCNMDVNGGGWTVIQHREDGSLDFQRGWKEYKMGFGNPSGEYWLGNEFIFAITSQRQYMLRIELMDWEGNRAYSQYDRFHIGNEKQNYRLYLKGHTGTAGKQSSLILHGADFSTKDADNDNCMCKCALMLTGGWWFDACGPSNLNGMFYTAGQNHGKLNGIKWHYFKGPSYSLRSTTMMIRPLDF
Description: Binding experiments (plasmon resonance assays) were conducted to ascertain whether selected antibodies bound to both Ang-2 and Ang-1 or if they preferentially bound to Ang-2 only. Each selected antibody or control construct was captured at a flow rate of 40 μL/min for 1 minute on a goat anti-human IgG polyclonal antibody surface created through direct chemical coupling to a BIACORE™ chip to form a captured antibody surface. Full-length wild-type human Ang-1 or Ang-2 at a concentration of 25 nM or 0.78 nM were injected over the captured antibody surface at a flowrate of 60 μL/min for 3 minutes, and antigen-antibody dissociation was monitored in real time for 20 minutes at either 25° C. or 37° C.

hAng-2FD-mFc N-467-G = target: T4, hAng-2FD-mFc N-467-G (Homo sapiens, UniProt O15123, N467G); test: Ang-2FD-mFc point mutant binding experiment (SPR), N-467-G; conditions: N-467-G mutant captured; antibody/peptibody at 100 nM; 25° C.
T4 construct: made in house
Excerpt: as §1, §2

[4] = PC3, 2.5 mg/kg subcutaneous twice per week
[5] = PC3, 10 mg/kg intraperitoneal twice per week, vs Fc protein
[6] = PC3, 12.5 mg/kg subcutaneous twice per week
[7] = PC3, 25 mg/kg subcutaneous twice per week

WT Ang-2FD-mFc construct, sequence (O15123 with tags, fused parts or gaps): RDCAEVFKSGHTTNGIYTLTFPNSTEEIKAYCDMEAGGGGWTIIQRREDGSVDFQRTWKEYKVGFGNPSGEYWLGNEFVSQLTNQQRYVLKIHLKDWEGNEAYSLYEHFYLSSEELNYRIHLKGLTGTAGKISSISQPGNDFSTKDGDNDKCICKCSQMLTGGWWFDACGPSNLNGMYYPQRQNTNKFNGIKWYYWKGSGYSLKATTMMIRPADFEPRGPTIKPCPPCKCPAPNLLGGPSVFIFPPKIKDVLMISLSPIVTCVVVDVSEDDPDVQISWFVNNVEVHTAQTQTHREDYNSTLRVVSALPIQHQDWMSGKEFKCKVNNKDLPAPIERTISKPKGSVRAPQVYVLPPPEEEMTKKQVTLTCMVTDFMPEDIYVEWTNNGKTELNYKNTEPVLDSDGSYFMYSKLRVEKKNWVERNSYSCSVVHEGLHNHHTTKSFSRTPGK
T1 sequence (O15123 with tags, fused parts or gaps K432N): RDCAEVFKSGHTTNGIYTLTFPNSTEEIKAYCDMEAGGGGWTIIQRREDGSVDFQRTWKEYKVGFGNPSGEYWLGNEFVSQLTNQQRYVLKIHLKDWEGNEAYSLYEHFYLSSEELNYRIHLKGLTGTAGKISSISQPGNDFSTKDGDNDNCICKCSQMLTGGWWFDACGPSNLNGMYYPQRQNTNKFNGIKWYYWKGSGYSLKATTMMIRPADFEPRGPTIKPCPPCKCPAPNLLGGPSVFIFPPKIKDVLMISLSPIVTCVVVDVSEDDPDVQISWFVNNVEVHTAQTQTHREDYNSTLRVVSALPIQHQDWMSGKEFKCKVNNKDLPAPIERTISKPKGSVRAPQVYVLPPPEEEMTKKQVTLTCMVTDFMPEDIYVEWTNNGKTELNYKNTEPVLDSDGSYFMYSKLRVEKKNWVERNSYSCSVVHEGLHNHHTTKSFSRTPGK
T4 sequence (O15123 with tags, fused parts or gaps N467G): as the sequence (O15123 with tags, fused parts or gaps K432N) above, with N151K, N186G counted along it
T2 sequence (O15123 with tags, fused parts or gaps I434M): as the sequence (O15123 with tags, fused parts or gaps K432N) above, with N151K, I153M counted along it
biotin-hBA2 binding to hTie-2, sequence (O15123 with tags, fused parts or gaps): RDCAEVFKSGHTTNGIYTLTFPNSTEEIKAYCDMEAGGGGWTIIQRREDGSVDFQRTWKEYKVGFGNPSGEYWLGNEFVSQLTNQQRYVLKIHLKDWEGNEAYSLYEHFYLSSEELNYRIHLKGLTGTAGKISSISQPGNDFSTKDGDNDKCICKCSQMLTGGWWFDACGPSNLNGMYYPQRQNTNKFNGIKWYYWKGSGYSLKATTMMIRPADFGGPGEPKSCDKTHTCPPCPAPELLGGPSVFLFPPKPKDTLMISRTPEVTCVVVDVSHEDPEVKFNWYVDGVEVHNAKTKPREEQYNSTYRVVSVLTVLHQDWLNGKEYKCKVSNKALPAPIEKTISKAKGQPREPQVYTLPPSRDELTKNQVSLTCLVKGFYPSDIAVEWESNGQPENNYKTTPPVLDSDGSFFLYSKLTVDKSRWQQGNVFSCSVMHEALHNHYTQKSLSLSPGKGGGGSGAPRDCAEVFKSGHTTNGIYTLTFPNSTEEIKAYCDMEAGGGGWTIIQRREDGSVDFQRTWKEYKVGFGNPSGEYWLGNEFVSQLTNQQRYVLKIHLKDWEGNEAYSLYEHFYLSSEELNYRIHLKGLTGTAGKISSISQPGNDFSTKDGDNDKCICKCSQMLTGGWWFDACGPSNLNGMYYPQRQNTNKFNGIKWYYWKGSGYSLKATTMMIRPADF

Substance: H1H685P: human anti-Ang-2 antibody, HCVR/LCVR SEQ ID NOs 18/20; also referred to as mAb1 [Antibody H1H685P]
- IC50 [1]: 0.02 nM
- Kd (hAng-2FD-mFc K-432-N): 0.014 nM
- RU (hAng-2FD-mFc K-432-N): 152.68 RU
- Kd ([2]; 25° C.): 0.0117 nM
- Kd ([2]; 37° C.): 0.027 nM
- % Decrease in Tumor Growth [3, 4]: 70%
- Avg Tumor Growth [3, 4]: 308 ± 274 mm^3
- Avg Tumor Weight ([3]; PC3, 10 mg/kg intraperitoneal twice per week, approximately three weeks, mean ± SD): 0.44 ± 0.12 g
- Avg Tumor Growth ([3]; PC3, 10 mg/kg intraperitoneal twice per week, mean ± SD): 305 ± 143 mm^3
- % Decrease in Tumor Growth [3, 5]: 40%
- % Decrease in Tumor Weight [3, 5]: 33%
- % Decrease in Tumor Growth [3, 6]: 47%
- Avg Tumor Growth [3, 6]: 550 ± 150 mm^3
- % Decrease in Tumor Growth [3, 7]: 60%
- Avg Tumor Growth [3, 7]: 413 ± 208 mm^3
- Anti-tumor activity in the PC3 mouse tumor model (in words) ([3]; as compared to the control constructs): especially marked anti-tumor activity
- Kd (WT Ang-2FD-mFc construct): 0.0223 nM
- RU (WT Ang-2FD-mFc construct): 210.70 RU
- Kd (hAng-2FD-mFc I-434-M): 0.0179 nM
- RU (hAng-2FD-mFc I-434-M): 235.95 RU
- KD, binding to hAng-1-WT (hAng-1-WT; 25° C.): No binding
- ka, binding to hAng-1-WT (hAng-1-WT; 25° C.): No binding
- kd, binding to hAng-1-WT (hAng-1-WT; 25° C.): No binding
- KD, binding to hAng-1-WT (hAng-1-WT; 37° C.): No binding
- ka, binding to hAng-1-WT (hAng-1-WT; 37° C.): No binding
- kd, binding to hAng-1-WT (hAng-1-WT; 37° C.): No binding
- Binding to Ang-1 (in words) (hAng-1-WT; SPR): does not bind to Ang-1
- Kd (hAng-2FD-mFc N-467-G): 0.00938 nM
- RU (hAng-2FD-mFc N-467-G): 152.25 RU
